B1: Speckle-type POZ protein (Homo sapiens), O43791 (parent)
chain: MSRVPSPPPPAEMSSGPVAESWCYTQIKVVKFSYMWTINNFSFCREEMGEVIKSSTFSSGANDKLKWCLRVNPKGLDEESKDYLSLYLLLVSCPKSEVRAKFKFSILNAKGEETKAMESQRAYRFVQGKDWGFKKFIRRDFLLDEANGLLPDDKLTLFCEVSVVQDSVNISGQNTMNMVKVPECRLADELGGLWENSRFTDCCLCVAGQEFQAHKAILAARSPVFSAMFEHEMEESKKNRVEINDVEPEVFKEMMCFIYTGKAPNLDKMADDLLAAADKYALERLKVMCEDALCSNLSVENAAEILILADLHSADQLKTQAVDFINYHASDVLETSGWKSMVVSHPHLVAEAYRSLASAQCPFLGPPRKRLKQS
partner: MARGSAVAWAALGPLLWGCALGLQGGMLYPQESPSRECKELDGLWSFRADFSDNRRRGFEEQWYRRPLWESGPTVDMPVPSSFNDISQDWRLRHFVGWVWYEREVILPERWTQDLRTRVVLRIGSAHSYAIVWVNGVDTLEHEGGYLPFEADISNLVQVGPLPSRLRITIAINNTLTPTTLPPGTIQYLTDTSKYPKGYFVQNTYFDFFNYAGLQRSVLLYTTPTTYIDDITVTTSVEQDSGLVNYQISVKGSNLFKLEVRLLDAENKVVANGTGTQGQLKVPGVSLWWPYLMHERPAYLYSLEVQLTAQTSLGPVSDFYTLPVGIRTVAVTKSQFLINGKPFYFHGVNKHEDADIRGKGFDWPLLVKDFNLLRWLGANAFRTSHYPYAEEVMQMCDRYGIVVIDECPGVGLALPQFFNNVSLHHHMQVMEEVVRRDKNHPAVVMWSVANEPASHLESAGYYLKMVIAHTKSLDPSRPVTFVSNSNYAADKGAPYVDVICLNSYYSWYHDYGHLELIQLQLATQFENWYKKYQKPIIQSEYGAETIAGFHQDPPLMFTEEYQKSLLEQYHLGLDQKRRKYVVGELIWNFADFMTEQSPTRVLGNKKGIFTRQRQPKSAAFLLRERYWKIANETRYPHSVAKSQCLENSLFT
B2: Speckle-type POZ protein (Homo sapiens), O43791 (parent)
chain: B1 chain
partner: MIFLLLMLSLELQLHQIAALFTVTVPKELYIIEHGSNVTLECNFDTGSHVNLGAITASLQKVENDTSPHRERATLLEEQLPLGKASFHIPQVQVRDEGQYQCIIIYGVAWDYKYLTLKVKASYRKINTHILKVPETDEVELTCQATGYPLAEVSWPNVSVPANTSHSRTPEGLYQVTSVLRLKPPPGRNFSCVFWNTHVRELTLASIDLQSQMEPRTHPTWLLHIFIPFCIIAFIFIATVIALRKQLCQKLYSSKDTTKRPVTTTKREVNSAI
B3: Speckle-type POZ protein (Homo sapiens), O43791 (parent)
chain: B1 chain
partner: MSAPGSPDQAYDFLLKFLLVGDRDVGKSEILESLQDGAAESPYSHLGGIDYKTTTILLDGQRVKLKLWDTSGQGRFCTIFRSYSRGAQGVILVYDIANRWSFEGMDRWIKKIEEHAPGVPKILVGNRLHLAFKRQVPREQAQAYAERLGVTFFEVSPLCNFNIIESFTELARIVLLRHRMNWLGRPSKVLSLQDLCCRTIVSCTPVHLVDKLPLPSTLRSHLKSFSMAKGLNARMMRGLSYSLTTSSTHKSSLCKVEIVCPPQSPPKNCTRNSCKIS
B4: Speckle-type POZ protein (Homo sapiens), O43791 (parent)
chain: B1 chain
partner: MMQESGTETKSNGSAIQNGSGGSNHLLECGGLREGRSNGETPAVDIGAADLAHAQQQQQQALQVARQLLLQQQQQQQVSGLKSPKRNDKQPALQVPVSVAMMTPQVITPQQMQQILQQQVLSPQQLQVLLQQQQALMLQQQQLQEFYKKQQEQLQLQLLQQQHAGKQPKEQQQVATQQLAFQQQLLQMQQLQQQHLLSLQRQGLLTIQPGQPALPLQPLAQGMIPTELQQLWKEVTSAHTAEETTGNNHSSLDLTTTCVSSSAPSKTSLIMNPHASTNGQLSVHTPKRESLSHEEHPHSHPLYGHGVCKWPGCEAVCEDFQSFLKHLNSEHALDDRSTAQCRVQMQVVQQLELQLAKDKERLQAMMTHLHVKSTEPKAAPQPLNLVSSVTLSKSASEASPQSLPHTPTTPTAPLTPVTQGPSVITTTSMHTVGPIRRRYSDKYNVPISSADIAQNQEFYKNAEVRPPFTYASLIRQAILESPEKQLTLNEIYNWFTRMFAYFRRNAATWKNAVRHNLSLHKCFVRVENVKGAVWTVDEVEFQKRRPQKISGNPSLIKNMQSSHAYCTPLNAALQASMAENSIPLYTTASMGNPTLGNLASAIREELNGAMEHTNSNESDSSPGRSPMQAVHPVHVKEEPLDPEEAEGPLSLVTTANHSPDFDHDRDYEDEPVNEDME
B5: Speckle-type POZ protein (Homo sapiens), O43791 (parent)
chain: B1 chain
partner: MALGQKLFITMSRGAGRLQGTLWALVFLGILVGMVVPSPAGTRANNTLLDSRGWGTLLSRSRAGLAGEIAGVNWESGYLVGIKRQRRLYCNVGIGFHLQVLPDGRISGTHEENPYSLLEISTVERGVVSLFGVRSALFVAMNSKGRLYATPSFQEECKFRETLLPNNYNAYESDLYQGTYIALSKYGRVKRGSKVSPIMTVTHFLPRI
B6: Speckle-type POZ protein (Homo sapiens), O43791 (parent)
chain: B1 chain
partner: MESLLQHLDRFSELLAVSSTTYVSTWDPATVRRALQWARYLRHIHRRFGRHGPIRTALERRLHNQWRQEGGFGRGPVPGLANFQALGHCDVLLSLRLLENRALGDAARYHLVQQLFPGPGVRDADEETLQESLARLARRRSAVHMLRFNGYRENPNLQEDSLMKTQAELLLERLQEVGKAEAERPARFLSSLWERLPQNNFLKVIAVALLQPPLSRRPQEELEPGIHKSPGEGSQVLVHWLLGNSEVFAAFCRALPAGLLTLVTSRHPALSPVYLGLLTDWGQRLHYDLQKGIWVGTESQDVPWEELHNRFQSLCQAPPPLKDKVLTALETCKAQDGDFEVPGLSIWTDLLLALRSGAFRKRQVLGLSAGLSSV

Variants of: B1
Details: with bglr_human GUSB

| effect of a mutation on the interaction | Variant |
| --- | --- |
| with no effect | Y87C |

Variants of: B1
Details: with bglr_human GUSB
Remark: another data set of the same source

| effect of a mutation on the interaction | Variant |
| --- | --- |
| with no effect | F133L |

Variants of: B1
Details: with bglr_human GUSB
Remark: another data set of the same source

| effect of a mutation on the interaction | Variant |
| --- | --- |
| with no effect | F133V |

Variants of: B1
Details: with bglr_human GUSB
Remark: another data set of the same source

| effect of a mutation on the interaction | Variant |
| --- | --- |
| with no effect | F102C |

Variants of: B2
Details: with pd1l2_human PDCD1LG2, Q9BQ51

| effect of a mutation on the interaction | Variant |
| --- | --- |
| with no effect | Y87C |

Variants of: B2
Details: with pd1l2_human PDCD1LG2, Q9BQ51
Remark: another data set of the same source

| effect of a mutation on the interaction | Variant |
| --- | --- |
| with no effect | F102C |

Variants of: B2
Details: with pd1l2_human PDCD1LG2, Q9BQ51
Remark: another data set of the same source

| effect of a mutation on the interaction | Variant |
| --- | --- |
| with no effect | F133V |

Variants of: B2
Details: with pd1l2_human PDCD1LG2, Q9BQ51
Remark: another data set of the same source

| effect of a mutation on the interaction | Variant |
| --- | --- |
| with no effect | F133L |

Variants of: B3
Details: with rb40a_human RAB40A

| effect of a mutation on the interaction | Variant |
| --- | --- |
| with no effect | F133V |

Variants of: B3
Details: with rb40a_human RAB40A
Remark: another data set of the same source

| effect of a mutation on the interaction | Variant |
| --- | --- |
| with no effect | F133L |

Variants of: B3
Details: with rb40a_human RAB40A
Remark: another data set of the same source

| effect of a mutation on the interaction | Variant |
| --- | --- |
| with no effect | F102C |

Variants of: B3
Details: with rb40a_human RAB40A
Remark: another data set of the same source

| effect of a mutation on the interaction | Variant |
| --- | --- |
| with no effect | Y87C |

Variants of: B4
Details: with foxp1_human FOXP1, Q9H334

| effect of a mutation on the interaction | Variant |
| --- | --- |
| with no effect | F102C |

Variants of: B4
Details: with foxp1_human FOXP1, Q9H334
Remark: another data set of the same source

| effect of a mutation on the interaction | Variant |
| --- | --- |
| with no effect | Y87C |

Variants of: B4
Details: with foxp1_human FOXP1, Q9H334
Remark: another data set of the same source

| effect of a mutation on the interaction | Variant |
| --- | --- |
| with no effect | F133L |

Variants of: B4
Details: with foxp1_human FOXP1, Q9H334
Remark: another data set of the same source

| effect of a mutation on the interaction | Variant |
| --- | --- |
| causing an interaction | F133V |

Variants of: B5
Details: with fgf6_human FGF6, P10767

| effect of a mutation on the interaction | Variant |
| --- | --- |
| with no effect | F102C |

Variants of: B5
Details: with fgf6_human FGF6, P10767
Remark: another data set of the same source

| effect of a mutation on the interaction | Variant |
| --- | --- |
| with no effect | F133L |

Variants of: B5
Details: with fgf6_human FGF6, P10767
Remark: another data set of the same source

| effect of a mutation on the interaction | Variant |
| --- | --- |
| with no effect | F133V |

Variants of: B5
Details: with fgf6_human FGF6, P10767
Remark: another data set of the same source

| effect of a mutation on the interaction | Variant |
| --- | --- |
| with no effect | Y87C |

Variants of: B6
Details: with fancf_human FANCF

| effect of a mutation on the interaction | Variant |
| --- | --- |
| with no effect | F102C |

Variants of: B6
Details: with fancf_human FANCF
Remark: another data set of the same source

| effect of a mutation on the interaction | Variant |
| --- | --- |
| causing an interaction | Y87C |

Variants of: B6
Details: with fancf_human FANCF
Remark: another data set of the same source

| effect of a mutation on the interaction | Variant |
| --- | --- |
| with no effect | F133L |

Variants of: B6
Details: with fancf_human FANCF
Remark: another data set of the same source

| effect of a mutation on the interaction | Variant |
| --- | --- |
| with no effect | F133V |
